Source: patent publication US20090142377A1

Key:
[1] = biological target: dH5-II (cdH5-0 heat-cycled at pH 2, back to pH 7) (influenza A virus H5N1 strain A/Vietnam/1203/04) (UniProt Q8QPL1); assay: ELISA, coated H5 form; scaled
[2] = biological target: cdH5-0 (supernatant of dH5-0 after 10 minutes centrifugation at 16,000-18,000*g) (influenza A virus H5N1 strain A/Vietnam/1203/04); assay: ELISA, coated H5 form; scaled
[3] = biological target: fdH5-0 (ultrafiltrated dH5-0: flow-through of cdH5-0 through a 1,000 kDa cut-off filter) (influenza A virus H5N1 strain A/Vietnam/1203/04); assay: ELISA, coated H5 form; scaled
[4] = biological target: dH5-I (cdH5-0 heat-cycled at pH 7) (influenza A virus H5N1 strain A/Vietnam/1203/04) (UniProt Q8QPL1); assay: ELISA, coated H5 form; scaled
[5] = biological target: dH5-III (cdH5-0 incubated about 16 h at 47.5 C) (influenza A virus H5N1 strain A/Vietnam/1203/04) (UniProt Q8QPL1); assay: ELISA, coated H5 form; scaled
[6] = biological target: non-treated H5 (nH5) of H5N1 strain A/Vietnam/1203/04 (Protein Sciences) (influenza A virus H5N1 strain A/Vietnam/1203/04); assay: ELISA, coated nH5, antibody 1:2000
[7] = biological target: dOVA-2: ovalbumin 1 mg/ml in PBS, five heat cycles 30 to 85 C (chicken) (UniProt P01012); assay: ELISA, immobilized OVA form
[8] = biological target: cross-beta nOVA: ovalbumin (chicken egg-white albumin) dissolved at 1 mg/ml in PBS (chicken) (UniProt P01012); assay: ELISA, immobilized OVA form
[9] = biological target: dOVA-3: ovalbumin 1 mg/ml in PBS, about 16 h at 75 C (chicken) (UniProt P01012); assay: ELISA, immobilized OVA form
[10] = biological target: dOVA-1: ovalbumin 5.2 mg/ml in HBS, acidified with HCl, 40 minutes at 37 C, neutralized (chicken) (UniProt P01012); assay: ELISA, immobilized OVA form
[11] = biological target: cross-beta nOVA: ovalbumin (chicken egg-white albumin) dissolved at 1 mg/ml in PBS (chicken) (UniProt P01012); assay: ELISA, immobilized OVA; normalized to nOVA
[12] = biological target: cdH5-0 (supernatant of dH5-0 after 10 minutes centrifugation at 16,000-18,000*g) (influenza A virus H5N1 strain A/Vietnam/1203/04); assay: ELISA, immobilized H5; normalized to cdH5-0
[13] = biological target: fdH5-0 (ultrafiltrated dH5-0: flow-through of cdH5-0 through a 1,000 kDa cut-off filter) (influenza A virus H5N1 strain A/Vietnam/1203/04); assay: ELISA, immobilized H5; normalized to cdH5-0
[14] = biological target: dH5-I (cdH5-0 heat-cycled at pH 7) (influenza A virus H5N1 strain A/Vietnam/1203/04) (UniProt Q8QPL1); assay: ELISA, immobilized H5; normalized to cdH5-0
[15] = biological target: cdH5-0 (supernatant of dH5-0 after 10 minutes centrifugation at 16,000-18,000*g) (influenza A virus H5N1 strain A/Vietnam/1203/04); assay: ELISA, coated H5 form, tPA series with excess e-amino caproic acid
[16] = biological target: fdH5-0 (ultrafiltrated dH5-0: flow-through of cdH5-0 through a 1,000 kDa cut-off filter) (influenza A virus H5N1 strain A/Vietnam/1203/04); assay: as above

Row | relative affinity kD [10] | Substance | relative affinity kD [1] | relative affinity kD [2] | relative affinity kD [3] | relative affinity kD [4] | relative affinity kD [5] | further results
1 |  | HyTest clone 17C8, mouse monoclonal anti-H5 antibody | 34 a.u. | 100 a.u. | 128 a.u. | 51 a.u. | 68 a.u. | 
2 |  | Rockland anti-H5 A/VN/1203/04 mouse monoclonal antibody, catalogue number 200-301-975 | 79 a.u. | 100 a.u. | 103 a.u. | 47 a.u. | 78 a.u. | ELISA signal [6]: 1.5
3 | 127 a.u. | mouse HYB 099-09 (IgG1) anti-OVA monoclonal antibody |  |  |  |  |  | relative affinity kD [7]: 85.1 a.u.; relative affinity kD [8]: 71.2 a.u.; relative affinity kD [9]: 164 a.u.
4 |  | Rockland anti-H5 A/VN/1203/04 mouse monoclonal antibody, catalogue number 200-301-978 | 31 a.u. | 100 a.u. | 107 a.u. | 115 a.u. | 112 a.u. | 
5 |  | fourth and fifth finger domain of fibronectin (Fn F4-5), with C-terminal FLAG-tag (from UniProt P02751 183-275) |  |  |  |  |  | Normalized affinity, kD (%) [11]: 100%; Normalized affinity, kD (%) [12]: 100%; Normalized affinity, kD (%) [13]: 69%; Normalized affinity, kD (%) [14]: 0%
6 |  | Rockland anti-H5 A/VN/1203/04 mouse monoclonal antibody, catalogue number 200-301-979 | 83 a.u. | 100 a.u. | 97 a.u. | 125 a.u. | 126 a.u. | 
7 |  | tissue type plasminogen activator (tPA; Actilyse, Boehringer-Ingelheim) (from UniProt P00750 36-562) (enzyme) |  |  |  |  |  | Bmax [15]: 0.36; Bmax [16]: 0.37
8 | 44 a.u. | Sigma C6534 anti-OVA antibody |  |  |  |  |  | relative affinity kD [7]: 221 a.u.; relative affinity kD [8]: 84.9 a.u.; relative affinity kD [9]: 287 a.u.
9 |  | HyTest IgG2a clone 8D2, mouse monoclonal anti-H5 antibody | 36 a.u. | 100 a.u. | 125 a.u. | 34 a.u. | 72 a.u. | 
10 |  | Rockland anti-H5 A/VN/1203/04 mouse monoclonal antibody, catalogue number 200-301-976 | 132 a.u. | 100 a.u. | 105 a.u. | 0 a.u. | 127 a.u. | 
11 | 20.8 a.u. | monoclonal anti-OVA IgG (A6075, Sigma) (antibody) |  |  |  |  |  | 
12 | 115 a.u. | mouse HYB 099-01 (IgG1) anti-OVA monoclonal antibody |  |  |  |  |  | relative affinity kD [7]: 129 a.u.; relative affinity kD [8]: 98.5 a.u.; relative affinity kD [9]: 80.9 a.u.
13 | 154 a.u. | mouse HYB 099-02 (IgG1) anti-OVA monoclonal antibody |  |  |  |  |  | relative affinity kD [7]: 118 a.u.; relative affinity kD [8]: 103 a.u.; relative affinity kD [9]: 154 a.u.
14 |  | Rockland anti-H5 A/VN/1203/04 mouse monoclonal antibody, catalogue number 200-301-977 | 0 a.u. | 100 a.u. | 93 a.u. | 0 a.u. | 35 a.u. | 
15 |  | HyTest IgG2a clone 15A6, mouse monoclonal anti-H5 antibody | 31 a.u. | 100 a.u. | 204 a.u. | 105 a.u. | 76 a.u. | 
